Laboratory results: US20220033501A1 (SHANGHAI PHARMAEXPLORER, published 2022)

What was measured:
[1] = target: T1, monkey TIM-3 on CHOK1 stable cell line (CHOK1-cTIM-3) (monkey); experiment: FACS, CHOK1-cTIM-3 cells, 0 nM antibody
T1 chain: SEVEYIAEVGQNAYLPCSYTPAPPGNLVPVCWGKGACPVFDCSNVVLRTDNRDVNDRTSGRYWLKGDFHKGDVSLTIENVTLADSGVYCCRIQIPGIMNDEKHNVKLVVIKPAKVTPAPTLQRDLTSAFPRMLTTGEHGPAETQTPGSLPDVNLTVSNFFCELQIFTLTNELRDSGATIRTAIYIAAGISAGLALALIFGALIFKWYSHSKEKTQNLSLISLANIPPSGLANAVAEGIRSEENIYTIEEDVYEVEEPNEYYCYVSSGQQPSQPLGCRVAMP

[2] = target: T1, monkey TIM-3 on CHOK1 stable cell line …; experiment: FACS, CHOK1-cTIM-3 cells, 40 nM antibody
[3] = target: T2, human TIM-3 on CHOK1 stable cell line (CHOK1-hTIM-3) (human, UniProt Q8TDQ0 22-301); experiment: FACS, CHOK1-hTIM-3 cells, 1.6 nM antibody
T2 sequence: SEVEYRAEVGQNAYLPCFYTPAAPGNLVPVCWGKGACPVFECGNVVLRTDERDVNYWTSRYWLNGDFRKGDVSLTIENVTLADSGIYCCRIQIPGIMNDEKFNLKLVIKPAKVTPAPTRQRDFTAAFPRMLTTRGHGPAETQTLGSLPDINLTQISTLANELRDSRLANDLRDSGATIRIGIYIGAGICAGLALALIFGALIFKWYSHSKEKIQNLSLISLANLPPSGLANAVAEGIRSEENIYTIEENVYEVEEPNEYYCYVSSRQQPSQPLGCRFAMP

[4] = target: T2, human TIM-3 on CHOK1 stable cell line …; experiment: FACS, CHOK1-hTIM-3 cells, 0.013 nM antibody
[5] = target: T3, human TIM-3 extracellular domain protein with hFc tag (hTIM-3-hFc) (human, UniProt Q8TDQ0 22-200); experiment: ELISA, coated human TIM-3 ECD protein, 6.6667 nM antibody
T3 construct: not shown: human IgG Fc fragment (hFc) of the pCpC vector
T3 sequence: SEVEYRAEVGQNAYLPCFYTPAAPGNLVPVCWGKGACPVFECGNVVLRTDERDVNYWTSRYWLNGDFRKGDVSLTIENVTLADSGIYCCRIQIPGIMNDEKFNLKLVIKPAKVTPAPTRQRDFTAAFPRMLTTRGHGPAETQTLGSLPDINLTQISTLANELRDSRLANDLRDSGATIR

B1: 18D2H2 fully human TIM-3 antibody (human IgG4, kappa) (antibody, V domains shown)
VH: EVQLVESGGDLVQPGGSLRLSCAASGFTFSTYWMTWVRQAPGRGLEWVANIKQDGSAKYYVDSVKGRFTLSRDDAKNSLYLQMNSLRAEDTAVYYCARGSNWFDYWGQGTLVTVSS
VL: ETVMTQSPATLSVSPGERATLSCRANQNVYSNLAWYQQKPGQAPRLLIYDASTRATGFPARFSGSGSGTEFTLTISSLQSEDFAVYYCQQYNNWPLTFGGGTKVEIK
Mean fluorescence intensity [1]: 2.8
Mean fluorescence intensity [2]: 462
Mean fluorescence intensity [3]: 232
Mean fluorescence intensity [4]: 11.6
OD450 [5]: 2.61

B2: 39E5H1 fully human TIM-3 antibody (human IgG4, kappa) (antibody, V domains shown)
VH: EVQLVESGGGLVQPGGSLRLSCAASGFTFSSYWMSWVRQAPGKGLEWVANIKRGGSERYYVDSVKGRFTISGDNAKNSVYLQMNSLRAEDTAVYYCARGSNWFDPWGQGTLVTVSS
VL: ETVMTQSPAILSVSPGERATLSCRASQSVYSNLAWYQQKLGQAPRLLIYDASTRATGIPARFSGSGSGTEFTLTISSLQSEDFAVYYCQQYNNWPITFGQGTRLEIK
Mean fluorescence intensity [1]: 3
Mean fluorescence intensity [2]: 337
Mean fluorescence intensity [3]: 191
Mean fluorescence intensity [4]: 9.2
OD450 [5]: 2.95

B3: 34B6D8 fully human TIM-3 antibody (human IgG4, kappa) (antibody, V domains shown)
VH: EVQLVESGGGLVQPGGSLRLSCAASGFTFSTYWMTWVRQAPGKRLEWVANIKQGGGDKYYVDSVKGRFTISTDNAKNSLYLQMNSLRAEDTAVYYCARGSNWFDPWGQGTLVTVSS
VL: EIVMTQSPATLSMSPGERATLSCRASQSVYDNLAWYQQKPGQAPRLLIYGASTRATGIPARFSGSGSGTEFTLTISSLQSEDFALYYCQQYTHWPITFGQGTRLEIK
Mean fluorescence intensity [1]: 2.9
Mean fluorescence intensity [2]: 336
Mean fluorescence intensity [3]: 212
Mean fluorescence intensity [4]: 9.2
OD450 [5]: 2.99
